The source of these data is article doi:10.1101/2020.04.16.045708 (bioRxiv, 2020).

For assay [1], the target named is T1, C9ORF72-SMCR8 complex (human, UniProt Q96LT7;Q8TEV9).
T1 sequence 1: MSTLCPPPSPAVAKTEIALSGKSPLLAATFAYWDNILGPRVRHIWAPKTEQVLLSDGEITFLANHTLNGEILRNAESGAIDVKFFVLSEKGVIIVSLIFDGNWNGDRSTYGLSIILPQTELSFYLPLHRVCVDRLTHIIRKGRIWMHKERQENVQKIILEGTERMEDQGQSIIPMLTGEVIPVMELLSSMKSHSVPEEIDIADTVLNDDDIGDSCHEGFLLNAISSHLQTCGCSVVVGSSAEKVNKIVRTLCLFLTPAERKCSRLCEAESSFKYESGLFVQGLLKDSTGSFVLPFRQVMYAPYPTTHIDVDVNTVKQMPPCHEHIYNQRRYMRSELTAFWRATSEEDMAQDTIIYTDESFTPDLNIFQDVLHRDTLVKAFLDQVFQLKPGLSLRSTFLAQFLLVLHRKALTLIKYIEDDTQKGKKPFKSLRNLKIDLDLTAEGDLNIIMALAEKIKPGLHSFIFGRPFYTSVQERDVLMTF
T1 sequence 2: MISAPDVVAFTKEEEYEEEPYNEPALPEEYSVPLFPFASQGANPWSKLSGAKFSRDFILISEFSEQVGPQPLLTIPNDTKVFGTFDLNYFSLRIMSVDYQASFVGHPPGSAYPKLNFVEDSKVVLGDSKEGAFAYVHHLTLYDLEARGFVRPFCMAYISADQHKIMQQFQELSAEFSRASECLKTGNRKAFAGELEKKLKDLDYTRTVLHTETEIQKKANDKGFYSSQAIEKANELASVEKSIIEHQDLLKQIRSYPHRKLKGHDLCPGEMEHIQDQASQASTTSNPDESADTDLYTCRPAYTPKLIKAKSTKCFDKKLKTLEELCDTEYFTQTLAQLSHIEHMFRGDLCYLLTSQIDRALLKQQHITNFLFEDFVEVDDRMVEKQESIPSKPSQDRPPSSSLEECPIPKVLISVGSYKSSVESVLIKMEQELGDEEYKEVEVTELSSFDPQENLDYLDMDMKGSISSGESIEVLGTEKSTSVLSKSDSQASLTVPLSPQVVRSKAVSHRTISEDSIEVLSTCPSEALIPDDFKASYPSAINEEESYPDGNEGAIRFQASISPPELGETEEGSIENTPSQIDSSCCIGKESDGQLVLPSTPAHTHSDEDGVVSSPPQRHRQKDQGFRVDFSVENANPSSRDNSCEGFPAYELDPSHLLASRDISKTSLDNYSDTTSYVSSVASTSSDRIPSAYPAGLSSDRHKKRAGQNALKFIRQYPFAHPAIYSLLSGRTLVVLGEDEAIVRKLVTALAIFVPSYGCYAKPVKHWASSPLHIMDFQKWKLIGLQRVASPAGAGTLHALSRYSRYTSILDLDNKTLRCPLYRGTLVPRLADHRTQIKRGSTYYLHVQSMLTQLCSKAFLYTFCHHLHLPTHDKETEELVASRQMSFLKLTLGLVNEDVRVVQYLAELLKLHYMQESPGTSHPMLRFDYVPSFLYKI
Description: SEC. In general terms: In gel filtration, larger molecules generally elute earlier.

For assay [2], the target named is T2, C9ORF72-SMCR8^M3 complex (human, UniProt Q96LT7;Q8TEV9, E907A | K910A | Y913A | M914A).
T2 sequence 1: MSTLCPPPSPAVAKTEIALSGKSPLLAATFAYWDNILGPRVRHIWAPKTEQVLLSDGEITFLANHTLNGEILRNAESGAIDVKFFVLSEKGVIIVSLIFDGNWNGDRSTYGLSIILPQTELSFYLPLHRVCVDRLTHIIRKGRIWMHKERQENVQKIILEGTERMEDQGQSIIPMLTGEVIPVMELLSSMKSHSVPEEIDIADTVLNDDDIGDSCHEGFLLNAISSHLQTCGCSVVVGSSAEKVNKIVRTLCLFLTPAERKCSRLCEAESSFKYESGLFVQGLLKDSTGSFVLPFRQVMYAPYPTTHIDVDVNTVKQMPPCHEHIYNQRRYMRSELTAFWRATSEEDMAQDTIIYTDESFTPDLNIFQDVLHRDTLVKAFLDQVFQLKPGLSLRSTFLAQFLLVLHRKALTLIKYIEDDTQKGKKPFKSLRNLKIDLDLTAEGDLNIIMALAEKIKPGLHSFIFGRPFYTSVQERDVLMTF
T2 sequence 2: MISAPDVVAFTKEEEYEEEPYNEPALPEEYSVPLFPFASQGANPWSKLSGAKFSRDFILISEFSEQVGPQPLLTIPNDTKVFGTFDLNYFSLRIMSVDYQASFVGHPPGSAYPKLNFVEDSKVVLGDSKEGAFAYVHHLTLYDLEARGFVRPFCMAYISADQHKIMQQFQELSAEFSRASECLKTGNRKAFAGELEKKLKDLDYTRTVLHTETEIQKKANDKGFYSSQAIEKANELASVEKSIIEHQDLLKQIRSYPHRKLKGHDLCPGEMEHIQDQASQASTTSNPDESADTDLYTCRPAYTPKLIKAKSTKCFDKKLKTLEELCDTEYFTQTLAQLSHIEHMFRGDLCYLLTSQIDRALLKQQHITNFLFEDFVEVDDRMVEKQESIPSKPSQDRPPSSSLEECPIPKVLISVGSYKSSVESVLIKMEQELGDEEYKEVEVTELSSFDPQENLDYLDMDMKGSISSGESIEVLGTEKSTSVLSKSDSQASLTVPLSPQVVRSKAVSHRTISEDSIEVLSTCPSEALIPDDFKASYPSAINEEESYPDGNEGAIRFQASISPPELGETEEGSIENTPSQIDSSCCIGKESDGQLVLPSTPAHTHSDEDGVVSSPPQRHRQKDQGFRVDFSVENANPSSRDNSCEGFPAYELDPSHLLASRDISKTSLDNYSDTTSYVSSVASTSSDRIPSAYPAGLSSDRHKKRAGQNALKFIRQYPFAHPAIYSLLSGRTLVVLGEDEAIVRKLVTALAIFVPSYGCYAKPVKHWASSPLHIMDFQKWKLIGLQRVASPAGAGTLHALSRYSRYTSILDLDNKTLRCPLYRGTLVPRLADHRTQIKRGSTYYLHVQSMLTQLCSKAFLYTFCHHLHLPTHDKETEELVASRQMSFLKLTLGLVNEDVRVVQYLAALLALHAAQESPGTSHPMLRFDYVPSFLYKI
Description: pull-down.

The target of assay [3] is T3, C9ORF72-SMCR8^M2 complex (human, UniProt Q96LT7;Q8TEV9, T862A | F863A | H865A | L867A).
T3 sequence 1: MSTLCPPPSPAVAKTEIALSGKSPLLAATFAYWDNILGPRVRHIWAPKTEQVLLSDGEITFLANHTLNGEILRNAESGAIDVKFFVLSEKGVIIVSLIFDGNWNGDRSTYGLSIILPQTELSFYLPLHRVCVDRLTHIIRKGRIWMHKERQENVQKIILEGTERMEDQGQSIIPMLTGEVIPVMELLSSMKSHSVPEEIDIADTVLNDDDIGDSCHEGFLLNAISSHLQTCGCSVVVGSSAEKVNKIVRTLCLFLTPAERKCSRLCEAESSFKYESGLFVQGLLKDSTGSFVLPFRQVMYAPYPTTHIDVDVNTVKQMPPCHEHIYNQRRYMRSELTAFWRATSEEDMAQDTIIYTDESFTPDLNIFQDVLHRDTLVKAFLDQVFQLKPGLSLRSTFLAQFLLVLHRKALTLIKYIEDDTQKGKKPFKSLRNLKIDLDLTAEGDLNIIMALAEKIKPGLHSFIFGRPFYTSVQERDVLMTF
T3 sequence 2: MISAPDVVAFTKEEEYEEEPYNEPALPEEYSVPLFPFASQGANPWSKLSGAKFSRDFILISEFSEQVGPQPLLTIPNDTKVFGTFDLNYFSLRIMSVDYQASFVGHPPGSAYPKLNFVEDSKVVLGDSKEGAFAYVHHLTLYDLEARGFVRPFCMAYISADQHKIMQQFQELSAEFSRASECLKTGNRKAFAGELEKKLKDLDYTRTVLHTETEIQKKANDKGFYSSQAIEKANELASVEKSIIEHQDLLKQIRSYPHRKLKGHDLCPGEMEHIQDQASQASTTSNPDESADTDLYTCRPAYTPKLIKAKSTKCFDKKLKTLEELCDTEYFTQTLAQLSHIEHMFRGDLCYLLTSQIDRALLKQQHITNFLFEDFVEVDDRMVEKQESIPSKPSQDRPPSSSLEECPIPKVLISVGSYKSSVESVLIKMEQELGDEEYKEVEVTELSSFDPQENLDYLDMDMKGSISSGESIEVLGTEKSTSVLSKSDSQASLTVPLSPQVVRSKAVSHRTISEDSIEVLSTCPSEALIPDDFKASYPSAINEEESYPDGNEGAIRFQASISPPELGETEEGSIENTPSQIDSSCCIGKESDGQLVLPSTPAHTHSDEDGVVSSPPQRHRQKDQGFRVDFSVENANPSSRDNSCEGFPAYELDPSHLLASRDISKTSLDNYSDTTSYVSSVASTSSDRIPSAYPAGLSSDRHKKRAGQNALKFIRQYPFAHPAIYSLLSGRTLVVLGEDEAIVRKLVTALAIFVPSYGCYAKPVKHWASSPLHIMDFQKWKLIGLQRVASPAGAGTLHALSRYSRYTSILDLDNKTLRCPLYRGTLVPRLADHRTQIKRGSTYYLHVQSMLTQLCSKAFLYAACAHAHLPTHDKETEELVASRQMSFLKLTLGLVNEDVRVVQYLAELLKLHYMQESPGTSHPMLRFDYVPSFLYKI
Description: pull-down.

Assay [4] concerns the target T4, C9ORF72 (human, UniProt Q96LT7 1-481).
T4 sequence: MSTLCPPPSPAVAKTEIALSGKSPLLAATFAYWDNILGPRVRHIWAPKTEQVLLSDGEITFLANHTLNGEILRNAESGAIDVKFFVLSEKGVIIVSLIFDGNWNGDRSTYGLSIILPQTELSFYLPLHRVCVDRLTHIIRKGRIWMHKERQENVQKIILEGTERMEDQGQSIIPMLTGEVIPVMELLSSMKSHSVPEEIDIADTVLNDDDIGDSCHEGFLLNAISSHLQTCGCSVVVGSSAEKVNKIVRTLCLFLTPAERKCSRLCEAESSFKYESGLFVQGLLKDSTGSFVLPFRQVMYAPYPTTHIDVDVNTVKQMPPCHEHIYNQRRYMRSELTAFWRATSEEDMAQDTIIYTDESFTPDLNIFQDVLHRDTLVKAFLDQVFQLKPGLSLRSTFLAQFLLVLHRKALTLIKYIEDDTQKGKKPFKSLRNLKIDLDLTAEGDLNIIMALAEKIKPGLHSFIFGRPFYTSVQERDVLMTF
Description: AUC.

B1: WDR41 (WD40 repeat-containing protein 41) (natural protein)
chain: MLRWLIGGGREPQGLAEKSPLQTIGEEQTQNPYTELLVLKAHHDIVRFLVQLDDYRFASAGDDGIVVVWNAQTGEKLLELNGHTQKITAIITFPSLESCEEKNQLILTASADRTVIVWDGDTTRQVQRISCFQSTVKCLTVLQRLDVWLSGGNDLCVWNRKLDLLCKTSHLSDTGISALVEIPKNCVVAAVGKELIIFRLVAPTEGSLEWDILEVKRLLDHQDNILSLINVNDLSFVTGSHVGELIIWDALDWTMQAYERNFWDPSPQLDTQQEIKLCQKSNDISIHHFTCDEENVFAAVGRGLYVYSLQMKRVIACQKTAHDSNVLHVARLPNRQLISCSEDGSVRIWELREKQQLAAEPVPTGFFNMWGFGRVSKQASQPVKKQQENATSCSLELIGDLIGHSSSVEMFLYFEDHGLVTCSADHLIILWKNGERESGLRSLRLFQKLEENGDLYLAV
A word on the stoichiometry N: it is the number of molecules, sites or subunits per partner or assembly. Regarding B1, the “stoichiometry N” value in assay [1] came to 1. Besides, the binding result in assay [2] and in assay [3] was “binds” throughout.

B2: SMCR8 Longin domain (SMCR8^Longin), co-expressed with C9ORF72 (domain or fragment)
chain: MISAPDVVAFTKEEEYEEEPYNEPALPEEYSVPLFPFASQGANPWSKLSGAKFSRDFILISEFSEQVGPQPLLTIPNDTKVFGTFDLNYFSLRIMSVDYQASFVGHPPGSAYPKLNFVEDSKVVLGDSKEGAFAYVHHLTLYDLEARGFVRPFCMAYISADQHKIMQQFQELSAEFSRASECLKTGNRKAFAGELEKKLKDLDYTRTVLHTETEIQKKANDKGFYSSQAIEKANELASVEKSIIEHQDLLKQIRSYPHRKLKGHDLCPGEMEHIQDQASQASTTSNPDESADTDLYTCRPAYTPKLIKAKSTKCFDKKLKTLEELCDTEYFTQTLAQLSHIEHMFRGDL
For B2, the binding result in assay [4] was “binds”.
